Test results published in patent publication US20220380473A1, “ANTI-GAL3 ANTIBODIES AND USES THEREOF” (TrueBinding, Inc., priority 2019, published 2022).
“Also recorded” adds a separate entry of the source. One block for each molecule: values may come before it.

Columns and labels:
[1] = target: Galectin-3 (Homo sapiens, UniProt P17931); assay: SPR (BiacoreT200) binding affinity; conditions: 25° C., read-out: hGal-3 KD
Experimental: GAL3-binding antibodies were evaluated for their binding affinity by SPR. Kinetics experiments were performed on BiacoreT200 at 25° C. in high performance mode. Ligand proteins, purified antibodies were captured onto a CM5 chip coupled with anti-human Fc or anti-mouse Fc antibody, three antibodies at a time onto flow cell #2, 3, and 4, respectively, while flow cell #1 was used as reference. The analyte Galectin-3 in HBS-EP buffer was injected over all four flow cells at concentrations of 100, 50, 25, 12.5, 6.25, 3.125 and 0 nM at a flow rate of 30 μL/min. The complex was allowed to associate and dissociate for 240 and 300 seconds, respectively. The surfaces were regenerated with a 30 second injection of 10 mM Glycine pH 1.7 (flow rate 30 μL/min). The data were fit to a simple 1:1 interaction model using the global data analysis option available within BiacoreT200 Evaluation software V2.0. The affinity of Gal3 monoclonal antibodies was confirmed to be […] 30 nM for all antibodies studied (Table 24.1). Antibodies with affinity less than 2E-7 were selected for further characterization.

[2] = system: hGal3 peptide; assay: Gal3 peptide library ELISA (Example 25); assay type: binding, human; conditions: for Epitope Mapping: hGal3 peptide No. bound; for Gal3 peptide bound: peptide array ELISA
Experimental: To identify the epitopes to which Gal3 antibodies with and without Gal3-TIM3 blocking activity bound, a library of 20 amino acid peptides representing portions of Gal3, summarized in Table 24.1, was produced and the ability to bind Gal3 antibodies was evaluated by ELISA.
At least 2 μg/ml of hGal3 peptide in 50 μl of PBS or 0.1 μg/ml of full-length human Gal3 protein (GenScript) and human Galectin-3 protein (Acro Biosystems, GA3-H5129) were diluted in PBS (Corning, 21-030-CM) to concentrations of at least 2 μg/ml or 0.1 μg/ml, respectively, and added to the wells of a 96-well ELISA plate (Thermo Fisher, 44-2404-21). After incubating the plate at 4° C. overnight, the plate was washed three times with PBST (PBS with 0.05% Tween 20 [VWR, 0777]). The plate was then blocked for an hour with 2% BSA (EMD Millipore, 126609) in PBST at room temperature with gentle rocking. Thereafter, the 2% BSA in PBST was discarded and human Galectin-3 hybridoma supernatants or antibodies were diluted in 2% BSA in PBST to concentrations of at least 0.1 μg/ml and added to the wells. The plate was incubated for an hour at room temperature with gentle rocking and then washed three times with PBST. Afterwards, Goat Anti-Mouse IgG-HRP (Jackson ImmunoResearch, 115-036-1461) or Goat Anti-Rat IgG HRP (abcam, ab205720) diluted in 2% BSA in PBST (1:4000) were added to the wells. The plate was incubated for 30 minutes to 1 hour at room temperature with gentle rocking and then washed three times with PB ST. TMB substrate (Thermo Scientific, 34029) was then added to each well. The reaction was stopped with 1M HCl (JT Baker, 5620-02) and read using a plate reader (Molecular Devices) at absorbance of 450 nm.

[3] = target: T1, association of GAL3 and TIM3 (Homo sapiens, UniProt P17931); assay: GAL3-TIM3 blocking ELISA (Examples 24, 27); assay type: binding; conditions: 3 ug/mL antibody
T1 construct: full-length human Galectin-3 protein (Acro Biosystems, GA3-H5129); linker-spaced 6-histidine tag; purchased Acro Biosystems GA3-H5129 (Gal3); TM3-H5229 (TIM-3)
Experimental: Positively scoring wells were evaluated for the ability to block association of GAL3 and TIM3. To identify GAL3-targeted antibodies with the ability to block the interaction of GAL3 and TIM3, purified GAL3 and TIM3 proteins were incubated in the presence of GAL3-immunization hybridoma supernatants described above, or without antibody, and protein interaction was evaluated by ELISA. Human Galectin-3 protein (Acro Biosystems, GA3-H5129) was diluted in PBS (Corning, 21-030-CM) to a concentration of 3 μg/ml and added to the wells of a 96-well ELISA plate (Thermo Fisher, 44-2404-21). After incubating the plate at 4° C. overnight, the plate was washed three times with PBST (PBS with 0.05% Tween 20 [VWR, 0777]). The plate was then blocked for an hour with 2% BSA (EMD Millipore, 126609) in PBST at room temperature with gentle rocking. Thereafter, the 2% BSA in PBST was discarded and antibody or inhibitor (3-fold dilutions beginning at 20 μg/ml, 60 μg/ml, or 180 μM) in 2% BSA in PBST was added to the wells. Afterwards, 2 μg/ml of human TIM3 (Aero Biosystems, TM3-H5229) in 2% BSA in PBST was added to the antibody or inhibitor in the wells in a 1:1 ratio. The plate was incubated for an hour at room temperature with gentle rocking. Thereafter, the plate was washed three times with PBST, and 0.3 μg/ml of human TIM3 Biotinylated Antibody (R&D Systems, BAF2365) in 2% BSA in PBST was added to the wells. The plate was incubated for an hour with gentle rocking and then washed three times with PBST. Avidin-HRP (1:2000) was then added to the wells. The plate was incubated at room temperature for an hour with gentle rocking and then washed three times with PBST. TMB substrate (Thermo Scientific, 34029) was then added to each well. The reaction was stopped with 1M HCl (JT Baker, 5620-02) and read using a plate reader (Molecular Devices) at absorbance of 450 nm.

[4] = target: human Gal3-His (Homo sapiens, UniProt P17931); assay: Antibody binning by biolayer interferometry (Gator); assay type: binding; conditions: antibody competition
Experimental: To determine whether Gal3-binding antibodies with Gal3-TIM3 blocking activity bind to the same or overlapping regions of the Gal3 molecule, antibody binning assays were performed to assess the ability of antibodies to simultaneously bind Gal3. Amine-reactive probes were loaded onto a Gator biosensor (Probe Life, Palo Alto, Calif.), equilibrated in dH20 for 60 seconds, dipped into 100 μl EDC 0.2M/NHS 0.05M activation buffer for 30 seconds, then dipped into a solution of […] human Gal3-His in 10 mM NaOAc buffer, pH 5 until binding was saturated, and quenched in 1 M ethanolamine pH 8.5 for 300 seconds. Following Gal3-His loading, tips were dipped in 20 μg/mL saturating antibody, then successively dipped into 5 μg/mL competing antibody.

Galectin-3, sequence (P17931 whole entry): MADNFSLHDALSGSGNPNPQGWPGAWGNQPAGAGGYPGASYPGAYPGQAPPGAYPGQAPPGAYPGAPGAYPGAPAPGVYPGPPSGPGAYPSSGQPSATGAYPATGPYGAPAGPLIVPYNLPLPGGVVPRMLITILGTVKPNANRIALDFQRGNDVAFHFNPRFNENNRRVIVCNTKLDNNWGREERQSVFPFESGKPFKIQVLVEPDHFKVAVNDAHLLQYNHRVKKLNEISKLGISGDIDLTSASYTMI
human Gal3-His, sequence (P17931 whole entry): as above
T1 sequence (P17931 2-250 limits assumed): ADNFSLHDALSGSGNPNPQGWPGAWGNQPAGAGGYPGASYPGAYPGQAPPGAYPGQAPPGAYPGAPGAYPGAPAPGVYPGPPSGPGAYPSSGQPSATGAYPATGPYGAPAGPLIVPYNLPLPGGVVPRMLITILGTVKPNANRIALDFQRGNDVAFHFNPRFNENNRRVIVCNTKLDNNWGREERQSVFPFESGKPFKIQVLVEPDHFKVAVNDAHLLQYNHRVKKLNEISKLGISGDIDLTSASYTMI

- Kd [1]: < 1 nM
- GAL3-TIM3 Blocking @ 3 ug/mL [3]: 61%
- Bin [4]: 4
B1: 19B5.2E6: murine anti-Gal3 antibody (antibody, V domains shown)
VH: QIQLVQSGPELKKPGETVKISCKASGYTFTTYAMSWVKQAPGKGLKWMGWINTYSGVPTYADDLKGRFAFSLETSASTAYLQINNLKNEDTATYFCARGPYAMDYWGQGTSVTVSS
VL: DIQMTQTTSSLSASLGDRVTISCSASQGINNYLNWYQQKPDGTVKLLIYYASSLHSGVPSRFSGSGSGTDYSLTISNLEPEDIATYYCQQYSQVPYTFGSGTKLEIK
- Epitope Mapping [2]: 1,7
- Gal3 peptide bound [2]: peptide 1; also recorded: peptide 7

- Kd [1]: 4.26 nM
- GAL3-TIM3 Blocking @ 3 ug/mL [3]: 80%
- Bin [4]: 4
B2: 23H9.2E4: murine anti-Gal3 antibody (antibody, V domains shown)
VH: B1 VH
VL: B1 VL
- Epitope Mapping [2]: 1,7
- Gal3 peptide bound [2]: peptide 1; also recorded: peptide 7

- Kd [1]: 2.06 nM
- GAL3-TIM3 Blocking @ 3 ug/mL [3]: 19%
- Bin [4]: 8
B3: 15F10.2D6: murine anti-Gal3 antibody (antibody, V domains shown)
VH: EVQLVESGGGLVKPGGSLKLSCAASGFAFSSYAMSWVRQTPEKRLEWVATISDGGVYTYYTDHVKGRFTISRDNAEDNLYLQMSHLKSEDTAMYYCVRDGGYWGQGTTLTVSS
VL: DVLMTQTPLSLPVSLGDQASISCRSSQSIVHNNGNTYLEWYLQKPGQSPKLLIYKVSNRFSGVPDRFSGSGSGTDFTLKISRVEAEDLGVYYCFQGSHVPLTFGGGTKLELK
- Epitope Mapping [2]: 2,7
- Gal3 peptide bound [2]: peptide 7

- Kd [1]: 2.73 nM
- GAL3-TIM3 Blocking @ 3 ug/mL [3]: 90%
- Bin [4]: 3
B4: 846.1F5: murine anti-Gal3 antibody (antibody, V domains shown)
VH: QIQLVQSGPELKKPGETVKISCKASGYTFTNYGMNWVKQAPGKGLKWMGWINTYTGEPSYADDFKGRFAFSLETSASTAYLQINNLKNEDMATYFCARWGGYDGDYYAMDYWGQGTSVTVSS
VL: NIMMTQSPSSLAVSAGEKVTMSCKSSQSVLYSSNQKNYLAWYQQKPGQSPKLLIYWASTRESGVPDRFTGSGSGTDFTLTISSVQPEDLAVYYCHQYLSSLTFGAGTKLELK
- Epitope Mapping [2]: 6
- Gal3 peptide bound [2]: peptide 6

- Kd [1]: 27.8 nM
- GAL3-TIM3 Blocking @ 3 ug/mL [3]: 40%
- Bin [4]: 5
B5: 20D11.2C6: murine anti-Gal3 antibody (antibody, V domains shown)
VH: EVQLQQSGPELVKPGASVKISCKASGYTFTDFYINWVKQSHGKSLEWIGDINPKNGGINYNPKFKIKATLTVDKSSSTSYMDLRGLTSEDSAVYYCTSGYGFPYWGQGTLVTVSA
VL: DIQMNQSPSSLSASLGDTITITCRASQNIYIWLSWYQQKPGNIPKLLIYKASNLHTGVPSRFSGSGSGTDFTLTISTLQPEDIATYFCLQGQSYPLTFGAGTKLEMK
- Gal3 peptide bound [2]: peptide 1; also recorded: peptide 7

- Kd [1]: 5.22 nM
- GAL3-TIM3 Blocking @ 3 ug/mL [3]: 48%
- Bin [4]: 3
B6: 4A11.2B5: murine anti-Gal3 antibody, origin of IMT006-1 and IMT006-5 (antibody, V domains shown)
VH: QVQLQQSGPELVKPGASVKISCKASGYSFTNYYIHWVKQRPGQGLEWIGWIYPGSGNTNYNEKFKGKATLTADTSSSTTNMQLSSLTSEDSAVYYCSTAPGGFDVWGSGTTVTVSS
VL: DIVMTQAAFSNPVTLGTSASISCRSSKSLLHSDGITYLYWYLQRPGQSPQLLIYRMSNLASGVPDRFSGSGSGTDFTLRISRVEAEDVGVYYCAQMLEFPLTFGAGTKLELK
- Epitope Mapping [2]: 6
- Gal3 peptide bound [2]: peptide 6
